This assay concerns the target T1, peptide … (HIV-1).
T1 construct: also called wt peptide
Nature of the assay: Pepscan ELISA. In general terms: ELISA stands for enzyme-linked immunosorbent assay.

B1: HGN194 (antibody, V domains shown)
VH: EVQLVQSGAEVKKPGESLKISCYGSGYNFNDYWIGWVRQMPGKGLEWMGMIYPDDSDTKYSAAFEGQVTLSADKSISTAYLQWTSLRASDTATYYCARLDGDYADFDSWGQGTLVTVSS
VL: QSVLTQPPSVSAAPGQKVTISCSGTNSNLGDKFVSWYQQLPGTAPRLLIYDNDKRPSGIPDRFSGSKSGASATLAITGLQTGDEADYYCGTWDNSLSALFGGGTKLTVL
notes: also called HGN194.12
As for B1, the binding result is reported as “binds”.
